EC50 data for one molecule are collected here from patent EP2748199B1 (Board of Regents, The University of Texas System, dated 2019).

This experiment addresses T1, human OX40 (human, UniProt P43489 29-277).
T1 construct: whole, on cells; The construct used for transfection is not described; also called hOX40; OX40 receptor
T1 sequence (looked up): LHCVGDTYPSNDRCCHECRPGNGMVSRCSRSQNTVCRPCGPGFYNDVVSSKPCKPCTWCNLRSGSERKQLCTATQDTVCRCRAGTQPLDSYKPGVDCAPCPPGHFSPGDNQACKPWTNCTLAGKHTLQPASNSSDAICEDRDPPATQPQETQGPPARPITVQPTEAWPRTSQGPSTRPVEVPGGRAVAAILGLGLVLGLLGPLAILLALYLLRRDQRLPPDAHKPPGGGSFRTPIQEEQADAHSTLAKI
Nature of the experiment: flow cytometry on L/OX40 cells, FITC goat anti-human IgG. A general note: A flow cytometer gives signals particle by particle.

B1: chimeric 119-43-1 IgG1/κ antibody (antibody, V domains shown)
VH: EVKLEESGGGLVQPGGSMKLSCAASGFTFSDAWMDWVRQSPEKGLEWVAEIRSKANNHATYYAESVNGRFTISRDDSKSSVYLQMNSLRAEDTGIYYCTWGEVFYFDYWGQGTTLTVSS
VL: DIQMTQSPSSLSASLGGKVTITCKSSQDINKYIAWYQHKPGKGPRLLIHYTSTLQPGIPSRFSGSGSGRDYSFSISNLEPEDIATYYCLQYDNLLTFGAGTKLELKR
notes: also called Ch119-43-1
What is called EC50 is the midpoint of the concentration-response curve. Lower therefore signals greater potency. Molecule B1 gave an EC50 of 0.96 µg/mL.
